Measured values published in patent publication US20140011213A1.

Molecular target: BAP-CD59a reporter, biotinylated in vitro by BirA (on CHO-S cells) (mouse)
Assay: FACS; CHO-S transfected with BAP-CD59a, incubated with BirA and stained with F-SA (non-transfected stained control MFI-69)

Sequence of BAP-CD59a reporter, biotinylated in vitro by BirA (on CHO-S cells) (mouse) (chain, as listed by the source): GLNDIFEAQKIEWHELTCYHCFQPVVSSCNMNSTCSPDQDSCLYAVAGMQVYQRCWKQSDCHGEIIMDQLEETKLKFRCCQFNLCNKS

An MFI of 24400 was found for “R-Phycoerythrin-conjugated Streptavidin (from UniProt P22629 37-163)” in this work.
